Measurements from article PMC546161.

Columns and labels:
[1] = biological target: His-Cdt1(193–447) (Xenopus) (UniProt Q9I9A7); assay: Coomassie densitometry of the purified complex on SDS-PAGE
[2] = biological target: His-Cdt1(193–447) (Xenopus) (UniProt Q9I9A7); assay: SEC + other: glycerol gradient sedimentation

Chain of UniProt Q9I9A7 (Q9I9A7 193-447): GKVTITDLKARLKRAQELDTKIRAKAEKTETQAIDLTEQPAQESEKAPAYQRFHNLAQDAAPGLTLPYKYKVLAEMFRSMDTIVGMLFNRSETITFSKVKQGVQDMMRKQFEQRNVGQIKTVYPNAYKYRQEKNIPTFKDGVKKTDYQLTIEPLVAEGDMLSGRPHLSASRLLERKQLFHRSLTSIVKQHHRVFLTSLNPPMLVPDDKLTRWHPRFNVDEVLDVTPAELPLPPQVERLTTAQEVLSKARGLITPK

mini-geminin (residues 87–168), S-tagged (domain or fragment)
stoichiometry N (mini-geminin per Cdt1(193–447)) [1]: 1.9 | stoichiometry N (mini-geminin per Cdt1(193–447)) [2]: 2
